The values below come from the DeepSol protein solubility set.

The series in a line: soluble on expression in E. coli; label from the status in PepcDB or PDB records.
In the case of “LHPDKCRAPHATEAFKALGNAYAVLSDTDKRRQYDQYGAEAANSHTPTTRRRGGGHGAFFEHDYAHGFEAEFTPEEIFNMFFGGGFPTEQVRRRARYAQQQQYHHYEQQQSPYGPLLQLLPLIAIMVIGLLAQLMVGEPAYSLHQTSKFTIKRLTADLRVPYFVRTDFETSYRGRIRQVEQQVEDDYIQNLRMNCYKEQNLKETKLYRARWMRDEAMMRDAERTPLPSCIRLNEIYSH”, the “soluble on expression in E. coli” value is “not soluble”.

For “MGSDKIHHHHHHMTNDSIKSETEVAPRDQSAVGTIPWAIKGELILNCNCTVFCPCVVSLGKHPPTEGYCQAWAGVRIDEGHYGDADLSGLNVGLVLEIPGLMARGNWKAAAYIDERASDAAYEGLIDVFSGKARGTTGLFKVLVSEFLGAERAPVLFETEGKTRRLIVGYYIHGEVVPVGGADSDQDIVVTNTEYWMGPDITVATATKGRVRAFGRVWDFDGRSAEICQIDWKGPR”, the “soluble on expression in E. coli” value is “not soluble”.

In the case of “MGSDKIHHHHHHMNPLNLIECLEQKERYTYNEGLIIDFILSHTERVLHMSIYELAEATNSSTSTIVRLCKKTETSGFKEFKIRLSRDLEIHYQAIRNVDANMPFLAQDSDLLIAKKIAQLTTETVQSTQQLLTEAMLNKSIDLLLTAENILAVGVSNSYIRLTDFQTKLLRIQLFIHLIPYQAEQFYLAINATKNDVAILVSYSGNTAEIVNEARIFAEGGTPIIAITSDLNSQLAKYATVILPIPNVEHADFKVSTFSSQLAIEYILNVLYSCIFSRNFDKNYTSQKNTPTSILKF”, the “soluble on expression in E. coli” value was “not soluble”.

Consider “MGSDKIHHHHHHMKGAVTTDVEAGGLRGRMYASRATSDVRPRADAPTFVLIHGIGVSHRYLVRLHHVLAGVADTISIDLPGFGSTPRPDRQLMVADQAAFIHDVLDQAGVGLRVLVGHSMGAQFVLEAALQRPEQVPHVVLMGPVVDVRRRTLPRQILALTKDALLHETPGSNALVFSDYLRCGPLWYLKELRVMMNYRTEERIRGLTTPVMILRGASDPIATGEWCRILARRAPAGTLVEVPGCGHVVQHTGTAQVADAITGFTGLPGSGAPEQTVNRQ”, for which the “soluble on expression in E. coli” value is “not soluble”.

As to “MRCPYCQYEDTQVKDSRPSEEGTVIRRRRICSVCGGRFTTFERVQLRELLVLKKSGRYEPFDRDKLMRSVEIAVRKRGIDPDYIERVISGIVRQLESLGEPEISSEKIGLLVMKALKSIDDIAYIRFASVYRDFRNASDFHDVIEELSKGITDTESCFDE”, the “soluble on expression in E. coli” value was “not soluble”.

Regarding “GPGSMSFAQNGTAPSTPAQQSKPEPDASPVAGEGSTSGRCAFDPEALRNLIVNYLPPLMNEAQVYELFGQFGRIESVKIIYDKITGESRGYGFVKYYFFFSATYAVSCLNRFEIGGKKLKVAYANAPAAKEAYDMLRLSAVALSVQQQQAMQSMYYHQMVLAQEQQGASAASSVAASAPMVGGADYGPYMNRVGGGYAMRQRESGAGYAQGMYPGMVAGGSVYLAGPFASGSRIVTPAIAPIGF”, the “soluble on expression in E. coli” value is on record as “not soluble”.

Regarding “MSLTHGDVMLLATSFAPGSSNIIYQVIDELVNYFKKFLFTVNYDSELTTIADCFDLLNIPKDHPSRNLTDTFYLDKNRLLRTHCTAATLRAVKETKKSNNPDIRIASFGAVFRKDDDDATHSHQFNQLDFMWIKKDFSLTNLKWFMQNMINHIFGENTSARFRLSHFPFTEPSFEIDIRCWLCQNGCGVCKKTRWIEVLGAGILHPQVMANMGFSDTDNIRGIAAGIGIERLVMLKHGISDIRDLYDNNFKFLAQFTEGHHHHHH”, the “soluble on expression in E. coli” value is given as “not soluble”.

For the sequence “MAHHHHHHMDSQTPHGDVVDEATMAVLPEHGLIFSEIKQMQLLLCKPKLLPVKSYSLEKLEKMEKKLAREAKEKRDANRAQRQAPLVWTSPDLTAGEGVKTIPAPSPLVTVAPAPPQNVASTPLRDGGATPPSAAPAVASSASSRGAASQETLSFTPVHTEGETCADASMSAPERSPRISPSTDVSSSSPSPSASTTD”, the “soluble on expression in E. coli” value is given as “soluble”.

Consider “MSLANGIEFNQNPASVFNSNSLDFELESQQLTQKNSSNTSSPLINLQNELAMITSSSLSETIEGLSLGYRKGSARKEEEGTTIEKLLNEMQELLTLTDSDKIKELSLKNSGLLEQHDPTLAMFGNMPKGEIVALISSLLQSKFVKIELKKKYAKLLLDLLGEDDWELALLSWLGVGELNQEGIQKIKKLYEKAKDEDSENGASLLDWFMEIKDLPEREKHLKVIIRALSFDLSYMSSFEDKVRTSSIISDLCRIIIFLSLNNYTDIIAISIKKDKDVILNEMLSIIEHVWLTEDWLLESPSRVSIVEDKHVYYFHLLKEFFASLPDACFIDNEQRSNTLLMIGKVIDYKEDVMEGHHHHHH”, for which the “soluble on expression in E. coli” value is recorded as “soluble”.

Regarding “IAPTAQKLSKIYGVRSSIIIGQAALDSHFGSTLLASKYHNLFSIEASPGQGAVRLKSHEYKNGRWQEVTNRYLVYESWKESLYDYMAILHGNKIWDKALYTTMMTSSGYKTVARALQAAGFNSDPNYADKLIAVIEENNLTDYDK”, the “soluble on expression in E. coli” value is recorded as “not soluble”.

On to “MMNEPQVSFITVCYNGFKDTCELIESLQTHVHSVSYEIIVVDNASREDEATKIKELYSDIVTLRSESNLGFSGGNNLGIRVAKGAYIFLINNDTYVESDGFHYLTERLESQKNIGAVSPKIRFAFPPQNIQFAGFTSLSAITIRNEMTGFGCPDDGTFDTPHTTPYLHGAALMVKREVIEKVGEMPEIFFLYYEEMDWCTQMTNAGYELWYEPRCTVFHKESQSTGQFSKLRTFYMTRNRLLYTRRNRKGAQRLLSILYQSTIAAGKNSLQFAVKGRFDLFAAVWKGVVRSFSVTSPIRLEHHHHHH”, for which the “soluble on expression in E. coli” value was “not soluble”.

Consider “MGDWIIKLEDVSAGYGKLQTLFDVSLEIPRGLITVIVGPNGAGKSTLLKTMFGFTTVYKGRVLFENTDVTHMPPHDRAKIGMTFIFQLENIFRELTVYENLRLAGYDLPEDVFRDRLEEVFSMFPRLKERLGQKAGTLSGGERQMLAMAIGIMRKPKVFLIDEPTAGLSPKLAKEVLSYVRILNKEGYTVVLVEQNVKASLEIGDKGVLVVNGRIAFDGPAEELLARKDLAKMYLGV”, for which the “soluble on expression in E. coli” value was “soluble”.

“MAHHHHHHMRTFSRTARITSSAACVGRFEHQGVSRDAVLARWSLQVVKPNAMKTGGLIGKGMKFASPLGPSGWATRNSGTGSTVLDVNWDLRERMDYYVHYSVPSTWTVVEHVSDNSVAIQSKPPVCDSPGAEGPTVHGFSLNCFAYKQKVKEPDCEKLLSLFLHRFDASVSNSLAVLSKASGRGNGVICGTAKPEQDISEVLANRLECAVAEITFTPAVGEPLAHGLCRAFYNSNRRFHYVVVVAVPEDEFTLSKDLLTHALLAVVESRVEAAPKGT”: the “soluble on expression in E. coli” value is “soluble”.

On to “MGSDKIHHHHHHMEDIVEALKLAVTNLPEDVALALKNAYEREDYEIAKYNLEIMLRAVKTSKYYYVPLCQDTGTPIFFVETDGTWNVKEIYETIAEAVKRATDEIPLRPNAICLLSGKVVGNVPEIHIEPGKRNRISILIKGGGSENCSALFPLTPGDWFEGVKKKIIDHIRSCGGKPCPPIIVGIGIASPAERAITLAKKSLFRKIGERHEKLGWLEEEILEEINFLDIGPMGLGGKTTALDVKIEVGERHPASFIVGIAIQCWAHRRAFIEEKEDGEVVIWQ”, for which the “soluble on expression in E. coli” value was “not soluble”.

Turning to “MGSSHHHHHHMRVDGREKTELRHIHIHTNYLKHPEGSVLIEVGDTKVICSATIEERVPPFMRGEGKGWVTAEYAMIPRATEQRTIRESSKGKVTGRTMEIQRLIGRALRAVVDLEALGERTVWIDCDVIQADGGTRTASITGAYVAMVLAFEKLLQAEKVSKIPVKDYLAATSVGIVEEQGVVLDLNYAEDSKADVDMNVIMTGKGQFVEVQGTGEEATFSRAQLNELLDAAEQGIFQLIDIQKEALGDIVSHIE”, the “soluble on expression in E. coli” value was “soluble”.

Consider “MSVNVRPVKRFVEEQKKKNPEIKLSEKATQLLTDMPKMDSPEKLFNLEDKIATEMGSDRIFEEFLQDYAFLRNAVEEYLDGKPTSSDTISKIARLRRNTRLTHYGTALMRKEVAERMENVDAKLLQLQNVTSEVQHIQKEIDRCLDFSAGDEELELVPFEQFHTEASEILANETADNEHEQYLARLKFENEQRRELLSTLNELEGRRNVLQSDIRGKEVRLQGLKPKLEDLTKVAEPVFEMVGAKFKDLSIEGEQRKLSLQLPAPLAVAHIHAAAYKEIHDGEYSKILRNFLYKYKLFEFRILGTNDTEKQSKDETEAMKRKRKEDETTQEKINKMASELLEVHPMSLEFEIECSENIKISMQIQYLTELKVTTAKWHINTDSKLKKSPFFSIDSLMSDLFENDTGDKCPNDVGEMKIEHLKMNFNSSAKQIGKPFKFIQEISGSEGETDRIGATEHLRKVITTIRTRISNRAVLDGIIRDLESKKTDDLNLEPEVKINSFKICDDESFIASIPTSLTKKISNSAATDRFSYKIEASDGNGRKLTAYISIPADYPRHTALFGIAAPEDSESSTEVARQIEDRLNTEAHYVDDVKSIKEQLSLLLKHIDLS”, for which the “soluble on expression in E. coli” value is given as “not soluble”.

Regarding “GSHGGSMKAANASSAEAYRVLSRAFRFDNEDQKLWWHSTAPMFAKMLETANYTTPCQYQYLITYKECVIPSLGCYPTNSAPRWLSILTRYGTPFELSLNCSNSIVRYTFEPINQHTGTDKDPFNTHAIWESLQHLLPLEKSIDLEWFRHFKHDLTLNSEESAFLAHNDRLVGGTIRTQNKLALDLKDGRFALKTYIYPALKAVVTGKTIHELVFGSVRRLAVREPRILPPLNMLEEYIRSRGSKSTASPRLVSCDLTSPAKSRIKIYLLEQMVSLEAMEDLWTLGGRRRDASTLEGLSLVRELWDLIQLSPGLKSYPAPYLPLGVIPDERLPLMANFTLHQNDPVPEPQVYFTTFGMNDMAVADALTTFFERRGWSEMARTYETTLKSYYPHADHDKLNYLHAYISFSYRDRTPYLSVYLQSFETGDWAVANLSESKVKCQDAACQPTALPPDLSKTGVYYSGLH”, the “soluble on expression in E. coli” value was “soluble”.

“MRNELNSNEYNLMASRQSRKILTGTLAAMENVKIGQDENVDCGVVFYDEFKILIPIREMNVSREDKRVIRSMIGAEIDFIVMEFDDENRTAIASRKEAMELRKNLELKKHKVGEKIFVRVTSVGRNNCRVDCYGIEYRVPINEIDYGYIDKVDKYVQVGDVVPAIIKELDIDNNIVVVSIKEAKEDPYLGIVKSLNKGGEYLGVVTGIKDYGIFLTIRKGVNCLCPFPNWANFSPAVGEKFVVRIKSINYDEKKINANLMRPINQRNKYNPTWGLGLEHHHHHH”: the “soluble on expression in E. coli” value is “soluble”.

For the sequence “MKALRGMISEKGGWNLTVNNDNNTVVSSGGALDLSSGSKNLKIVKDGKKNNVTFDVARDLTLKSIKLDGVTLNETGLFIANGPQITASGINAGSQKITGVAEGTDANDAVNFGQLKKIETEVKEQVAASGFVKQDSDTKYLTIGKDTDGDTINIANNKSDKRT”, the “soluble on expression in E. coli” value is “soluble”.

Regarding “MSKKVLIITGDAVEALEVYYPYYRLLEEGHDVTIAAPKKKKLHTVVHDFADWDTYVEKQGYLIDAHASFAEVDPAQYDALVIPGGRAPEYIRLDENVQRIVRHFFEANKPIAAICHASLIFETMPDLLKGRSLTAYIACKPGVEALGATYVSDNTVHVDGNLVSAHAWPDLPAFMREFLRLLQ”, the “soluble on expression in E. coli” value is on record as “soluble”.

“MGSDKIHHHHHHMDLKKWQDPLMNSELQQNYNDNLVKLAGSLEKANQDMTHVNQRISNLVIKSGGNESNEVVDARVSSLVPETEFTTLNDRINYAENALITGVGKLSTNVFDLMDKYNDIDTILKRLYGLDSSNIEIFVDDARGDDIAGTGEIDAPFKTINKAVMTLPRVLNSNSVNIWIVPGRYNEDVVIPPIMGGDIYIRSTNFETVDPTSSTGCQVRSISATGSNGYLYIAGLEETNTAGTTKNYFIKATRCGFVRITKCRMAFNTKAIDPFTAVFIDACSADVNGCYFASQNVDVRGYNTARVEVQNIVHGAKSAIGLYPQSADIFNLNSGTWEADTPTKLSGGGVVRT”: the “soluble on expression in E. coli” value is on record as “not soluble”.
